Assay results: patent US20190241648A1 (STATEN BIOTECHNOLOGY B V, published 2019)
Ends that are not written are not given here.

Tests used:
Experiment in all cases: cyclic peptide substitution array
[1] = molecular target: T1, ApoC3 peptide E70C (human, cyclic (thioether))
T1 peptide: DKFSEFWDLDPCV
Text: (§1) S62 and D68 of mature huApoC3 were also highly conserved; substitution of S62 by A or V, and substitution of D68 by E or P, caused decrease of spot intensities by ˜60% or higher. […] Amino acid F64 was completely variable.
(§2) Pre: staining of one of the ApoC3 peptide microarrays was done with the secondary antibody goat anti-human IgG (Fe) DyLight680 (1:5000) and control antibody mouse monoclonal anti-HA (12CA5) DyLight800 (1:2000) to investigate background interactions of the secondary antibody with the antigen-derived peptides that could interfere with the main assays. Subsequent incubation of other ApoC3 peptide microarrays with antibody samples was followed by staining with secondary and control antibodies as well as read-out at scanning intensities of 7/7 (red/green). The additional HA peptides framing the peptide arrays were stained as internal quality control to confirm the assay quality and the peptide microarray integrity.

[2] = molecular target: T2, ApoC3 peptide F61D (human, cyclic (thioether))
T2 peptide: DKDSEFWDLDPEV
Text: as §1, §2

[3] = molecular target: T3, ApoC3 peptide F64D (human, cyclic (thioether))
T3 peptide: DKFSEDWDLDPEV
Text: as §1, §2

[4] = molecular target: T4, ApoC3 peptide L67D (human, thioether (positions not given here); not fully specified (bridges); also: thioether between a C-terminal Cys side chain and a modified N-terminus, the Cys is not in the chain)
T4 peptide: DKFSEFWDDDPEV
Text: as §1, §2

[5] = molecular target: T5, ApoC3 peptide P69D (human, not fully specified; cyclic (thioether))
T5 peptide: DKFSEFWDLDDEV
Text: as §1, §2

[6] = molecular target: T6, ApoC3 peptide K60E (human, cyclic (thioether))
T6 peptide: DEFSEFWDLDPEV
Text: as §1, §2

[7] = molecular target: T7, ApoC3 peptide W65H (human, cyclic (thioether))
T7 peptide: DKFSEFHDLDPEV
Text: as §1, §2

[8] = molecular target: T8, ApoC3 peptide D68I (human, cyclic (thioether))
T8 peptide: DKFSEFWDLIPEV
Text: as §1, §2

[9] = molecular target: T9, ApoC3 peptide D59K (human, thioether (positions not given here); not fully specified (C-terminus, bridges))
T9 peptide: KKFSEFWDLDPEV
Text: as §1, §2

[10] = molecular target: T10, ApoC3 peptide S62K (human, thioether (positions not given here); also: cyclic (thioether), ring places not given here)
T10 peptide: DKFKEFWDLDPEV
Text: as §1, §2

[11] = molecular target: T11, ApoC3 peptide E63K (human, cyclic (thioether))
T11 peptide: DKFSKFWDLDPEV
Text: as §1, §2

[12] = molecular target: T12, ApoC3 peptide D66K (human, not fully specified; cyclic (thioether))
T12 peptide: DKFSEFWKLDPEV
Text: as §1, §2

[13] = molecular target: T13, ApoC3 peptide L67K (human, thioether (positions not given here); not fully specified (bridges); also: thioether between a C-terminal Cys side chain and a modified N-terminus, the Cys is not in the chain)
T13 peptide: DKFSEFWDKDPEV
Text: as §1, §2

[14] = molecular target: T14, ApoC3 peptide P69K (human, not fully specified; cyclic (thioether))
T14 peptide: DKFSEFWDLDKEV
Text: as §1, §2

[15] = molecular target: T15, ApoC3 peptide E70K (human, cyclic (thioether))
T15 peptide: DKFSEFWDLDPKV
Text: as §1, §2

[16] = molecular target: T16, ApoC3 peptide S62L (human, thioether (positions not given here); also: cyclic (thioether), ring places not given here)
T16 peptide: DKFLEFWDLDPEV
Text: as §1, §2

[17] = molecular target: T17, ApoC3 peptide W65M (human, cyclic (thioether))
T17 peptide: DKFSEFMDLDPEV
Text: as §1, §2

[18] = molecular target: T18, ApoC3 peptide E63N (human, cyclic (thioether))
T18 peptide: DKFSNFWDLDPEV
Text: as §1, §2

[19] = molecular target: T19, ApoC3 peptide D68P (human, cyclic (thioether))
T19 peptide: DKFSEFWDLPPEV
Text: as §1, §2

[20] = molecular target: T20, ApoC3 peptide F64R (human, thioether (positions not given here); not fully specified (bridges); also: cyclic (thioether), positions not given here)
T20 peptide: DKFSERWDLDPEV
Text: as §1, §2

[21] = molecular target: T21, ApoC3 peptide V71R (human, not fully specified; cyclic (thioether))
T21 peptide: DKFSEFWDLDPER
Text: as §1, §2

[22] = molecular target: T22, ApoC3 peptide D68S (human, cyclic (thioether))
T22 peptide: DKFSEFWDLSPEV
Text: as §1, §2

[23] = molecular target: T23, ApoC3 peptide D68T (human, cyclic (thioether))
T23 peptide: DKFSEFWDLTPEV
Text: as §1, §2

[24] = molecular target: T24, ApoC3 peptide P69T (human, not fully specified; cyclic (thioether))
T24 peptide: DKFSEFWDLDTEV
Text: as §1, §2

[25] = molecular target: T25, ApoC3 peptide F64V (human, thioether (positions not given here); not fully specified (bridges); also: cyclic (thioether), positions not given here)
T25 peptide: DKFSEVWDLDPEV
Text: as §1, §2

[26] = molecular target: T26, ApoC3 peptide W65V (human, cyclic (thioether))
T26 peptide: DKFSEFVDLDPEV
Text: as §1, §2

[27] = molecular target: T27, ApoC3 peptide D68Y (human, cyclic (thioether))
T27 peptide: DKFSEFWDLYPEV
Text: as §1, §2

[28] = molecular target: T28, ApoC3 peptide P69Y (human, not fully specified; cyclic (thioether))
T28 peptide: DKFSEFWDLDYEV
Text: as §1, §2

[29] = molecular target: T29, ApoC3 peptide V71Y (human, not fully specified; cyclic (thioether))
T29 peptide: DKFSEFWDLDPEY
Text: as §1, §2

[30] = molecular target: T30, ApoC3 peptide F61A (human, cyclic (thioether))
T30 peptide: DKASEFWDLDPEV
Text: as §1, §2

[31] = molecular target: T31, ApoC3 peptide S62A (human, not fully specified; cyclic (thioether))
T31 peptide: DKFAEFWDLDPEV
Text: as §1, §2

[32] = molecular target: T32, ApoC3 peptide F64A (human, cyclic (thioether))
T32 peptide: DKFSEAWDLDPEV
Text: as §1, §2

B1: Llama antibody 5E5 (antibody, V domains shown)
VH: QLQLVESGGGLVQPGGSLRLSCAASGFTFGTYSMRWVRQVPRKALEWVSSISTDGGGTAYRDSVKGRFTISRDNAKNTLYLQMNNLKPEDTAIYYCVIAGYSDWGQGTQVTVSS
VL: ATMLTQSPGSLSVVPGESASISCKTSQGLVHSDGKTYFYWFLQKPGQSPQQLIYQVSNRASGVPDRFTGSGSGTDFTLKISGVKAEDAGVYYCAQGTYYPHTFGSGTRLEIK
notes: detected with goat anti-human IgG (Fc); also called mAb 5E5
With B1 the “% of binding to wild-type peptide” value [1] was 27.1%, the “% of binding to wild-type peptide” value [2] was 16% and the “% of binding to wild-type peptide” value [3] was 259%. The “% of binding to wild-type peptide” value [4] was 0.99%, the “% of binding to wild-type peptide” value [5] was 21.6% and the “% of binding to wild-type peptide” value [6] was 362%. For the same binder, the “% of binding to wild-type peptide” value [7] was 0%, the “% of binding to wild-type peptide” value [8] was 0% and the “% of binding to wild-type peptide” value [9] was 30.6%. For the same binder, the “% of binding to wild-type peptide” value [10] was 4.05%, the “% of binding to wild-type peptide” value [11] was 19.1% and the “% of binding to wild-type peptide” value [12] was 0%. For the same binder, the “% of binding to wild-type peptide” value [13] was 45.6%, the “% of binding to wild-type peptide” value [14] was 20.7% and the “% of binding to wild-type peptide” value [15] was 60.1%. The “% of binding to wild-type peptide” value [16] was 3.83%, the “% of binding to wild-type peptide” value [17] was 0% and the “% of binding to wild-type peptide” value [18] was 31.3%. For the same binder, the “% of binding to wild-type peptide” value [19] was 28.6%, the “% of binding to wild-type peptide” value [20] was 73.7% and the “% of binding to wild-type peptide” value [21] was 57.3%. The “% of binding to wild-type peptide” value [22] was 0.17%, the “% of binding to wild-type peptide” value [23] was 0.65% and the “% of binding to wild-type peptide” value [24] was 113%. For the same binder, the “% of binding to wild-type peptide” value [25] was 117%, the “% of binding to wild-type peptide” value [26] was 17.9% and the “% of binding to wild-type peptide” value [27] was 0.16%. For the same binder, the “% of binding to wild-type peptide” value [28] was 15.4%, the “% of binding to wild-type peptide” value [29] was 87.4% and the “% of binding to wild-type peptide” value [30] was 17.4%. The “% of binding to wild-type peptide” value [31] was 29.6% and the “% of binding to wild-type peptide” value [32] was 220%.
